Paper PMC3098264, “Crystal Structure of the PAC1R Extracellular Domain Unifies a Consensus Fold for Hormone Recognition by Class B G-Protein Coupled Receptors” (PLoS ONE, 2011)
“Also recorded” adds a separate entry of the source.

These substances were tested against T1, human PAC1R ECD (MBP-PAC1R (25–140)-His6) (Homo sapiens, UniProt P41586) (assay: AlphaScreen competitive peptide binding assay (unlabelled PACAP peptides vs biotin-PACAP (6–38)-NH2)). Conditions: Ala scanning mutants of PACAP (15–31), 120 µM untagged competing peptides, 40 nM protein and biotinylated PACAP, 20°C, five hours, pH 7.4.
T1 construct: made in house; host or cells: E. coli Origami B (DE3), co-expressed with DsbC from pET-Duet1
T1 sequence (P41586 25-140 isoform P41586-3): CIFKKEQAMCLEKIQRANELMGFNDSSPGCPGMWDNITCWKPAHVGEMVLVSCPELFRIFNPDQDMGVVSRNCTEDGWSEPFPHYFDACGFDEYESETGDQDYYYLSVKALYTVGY
Method: The binding of PAC1R with a 35 residue PACAP peptide was analysed using the histidine detection kit of AlphaScreen® luminescent proximity assay from PerkinElmer. All binding assays were performed without cleaving the MBP tag from the receptor ECD. Using its C-terminal His tag, PAC1R was bound to Ni-chelate coated acceptor beads (5 µg/ml) at the final concentrations of 40 nM. Similarly, biotinylated PACAP was bound to streptavidin coated donor beads (5 µg/ml) at the final concentrations of 40 nM. The protein and peptide were pre-incubated with the respective beads for one hour (to ensure maximal binding to the beads), then they were allowed to interact with each other at 20°C for five hours. To perform competitive binding assays, 120 µM of the untagged competing peptides were added at time 0 of the five hour protein-peptide interaction period. All interactions were performed in the background of 50 mM MOPS pH 7.4, 150 mM NaCl and 7 mg/ml BSA. The binding signals were measured in a 384-well microplate using an Envision 2104 plate reader (PerkinElmer). The obtained data for competitive peptide binding were fit as a non-linear regression curve using the variable slope dose-response inhibition analysis using the Prism5.0 (GraphPad). To ensure the specificity of the competing peptides, a control peptide of biotin-Gly6-His6 was used in the same assay setup.

Row | Substance | effect of Ala mutation in PACAP (15–31) on binding to PAC1R ECD (Ala scanning)
1 | K20A′: Ala scanning mutant of PACAP (15–31) (KQMAVAKYLAAVLGKRY; Pituitary adenylate cyclase-activating polypeptide 38; UniProt P18509 146-162, looked up, variant K20A) | affect the binding to PAC1R the most; also recorded: almost completely abolishes the ability of the peptide to bind the receptor ECD
2 | L27A′: Ala scanning mutant of PACAP (15–31) (KQMAVKKYLAAVAGKRY; Pituitary adenylate cyclase-activating polypeptide 38; UniProt P18509 146-162, looked up, variant L27A) | seem to play important roles in the binding; also recorded: affect the binding to PAC1R the most
3 | V19A′: Ala scanning mutant of PACAP (15–31) (KQMAAKKYLAAVLGKRY; Pituitary adenylate cyclase-activating polypeptide 38; UniProt P18509 146-162, looked up, variant V19A) | seem to play important roles in the binding; also recorded: affect the binding to PAC1R the most
